# Laboratory results published in patent US20100323904, “Transcription chip” (published 2010).
# T1: Vitamin D receptor (VDR) (UniProt P11473 P11473:1-427)
# T1 sequence: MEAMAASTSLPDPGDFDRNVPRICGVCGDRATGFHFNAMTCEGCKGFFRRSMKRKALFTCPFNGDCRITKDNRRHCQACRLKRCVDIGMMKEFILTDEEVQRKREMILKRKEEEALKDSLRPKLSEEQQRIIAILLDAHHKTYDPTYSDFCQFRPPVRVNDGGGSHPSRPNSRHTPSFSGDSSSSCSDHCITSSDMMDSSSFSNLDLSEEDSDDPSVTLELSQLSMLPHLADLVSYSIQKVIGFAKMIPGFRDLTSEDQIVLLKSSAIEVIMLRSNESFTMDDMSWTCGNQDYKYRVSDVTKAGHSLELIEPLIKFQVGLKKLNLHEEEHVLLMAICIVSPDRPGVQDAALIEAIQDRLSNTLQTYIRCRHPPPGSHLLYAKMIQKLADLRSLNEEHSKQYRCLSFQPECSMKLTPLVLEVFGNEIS
# B1: PRD II (two copies) (dsDNA)
# DNA 1: GGGAGCTGAGTAGGGAAATTCCATGCATGCGGGAAATTCCCATG
# DNA 2: CATGGGAATTTCCCGCATGCATGGAATTTCCCTACTCAGCTCCC
# modifications: 5'-NH2(CH2)12 on top strand, immobilized on chip
# B2: IgkB (two copies) (dsDNA)
# DNA 1: GGGAGCTGAGTAGGGGATCCCATGCATGCGGGGATCCCCATG
# DNA 2: CATGGGGATCCCCGCATGCATGGGATCCCCTACTCAGCTCCC
# modifications: 5'-NH2(CH2)12 on top strand, immobilized on chip
# B3: VDRE (dsDNA)
# DNA 1: GGGAGCTGAGTAAGGTCAAGGAGGTCAATGCATGCAGGTCAAGGAGGTCACATG
# DNA 2: CATGTGACCTCCTTGACCTGCATGCATTGACCTCCTTGACCTTACTCAGCTCCC
# modifications: 5'-NH2(CH2)12 on top strand, immobilized on chip
# B4: AP1 (dsDNA)
# DNA 1: GGGAGCTGAGTATGACTCATATGCATGCTGACTCATCATG
# DNA 2: CATGATGAGTCAGCATGCATATGAGTCATACTCAGCTCCC
# modifications: 5'-NH2(CH2)12 on top strand, immobilized on chip
# B5: RARE (dsDNA)
# DNA 1: GGGAGCTGAGTAAGGTCACCAGGAGGTCAATGCATGCAGGTCACCAGGAGGTCACATG
# DNA 2: CATGTGACCTCCTGGTGACCTGCATGCATTGACCTCCTGGTGACCTTACTCAGCTCCC
# modifications: 5'-NH2(CH2)12 on top strand, immobilized on chip
# B6: TRE (dsDNA)
# DNA 1: GGGAGCTGAGTAAGGTCATGACCTATGCATGCAGGTCATGACCTCATG
# DNA 2: CATGAGGTCATGACCTGCATGCATAGGTCATGACCTTACTCAGCTCCC
# modifications: 5'-NH2(CH2)12 on top strand, immobilized on chip
# B7: CRE (dsDNA)
# DNA 1: GGGAGCTGAGTATGACGTCAATGCATGCTGACGTCACATG
# DNA 2: CATGTGACGTCAGCATGCATTGACGTCATACTCAGCTCCC
# modifications: 5'-NH2(CH2)12 on top strand, immobilized on chip
# Legend:
# NF-kB p50 [1] = target: T2, NF-kB p50 (UniProt P19838 P19838:1-433); assay: ELISA; on-chip ELISA; detected down to 1.0 ng/mL (DLC) and 0.33 ng/mL (GeneDia); 1% BSA, 10 mM HEPES pH 7.5, salmon sperm DNA, 2 mM DTT, room temperature; also fluorescence immunoassay on array; conditions: tags: Promega; chain copies: 2
# Method: (§1) The plate was washed twice with the washing buffer, NFκB at various concentrations diluted with the binding buffer was added, and the plate was shaken at room temperature for one hour. The plate was washed three times with the washing buffer, anti-NFκB antibody diluted 2000 times with antibody diluting buffer was added, and the plate was shaken at room temperature for one hour. The plate was washed three times with the washing buffer, POD-labeled anti-rabbit IgG secondary antibody diluted 2000 times with the antibody diluting buffer was added, and the plate was shaken at room temperature for one hour. The plate was washed five times with the washing buffer, and subsequently absorbance at a wavelength of 450 nm based on the absorbance of TMBZ which was a color development substrate of POD was measured by a microplate reader.
# (§2) In order to investigate an ELISA condition for NFκB, the double-stranded DNA comprising the element DNA sequence different in length and copy number were synthesized by the PCR method or a synthetic method, and analyzed. When PRD II-1 comprising one copy of the PRD II sequence was compared with PRD II-2, the immobilized PRD II-2 was more excellent in efficiency of trapping NFκB (FIG. 5). […]
# NF-kB p50 [2] = target: T2, NF-kB p50; assay: ELISA; trapping equivalent to or more than PRD II-2; conditions: tags: Promega; chain copies: 2; label: 5'-FITC on bottom strand
# Method: as §1, §2
# NF-kB p50 [3] = target: T2, NF-kB p50; assay: array fluorescence immunoassay, 100 ng/mL; conditions: tags: Promega; chain copies: 2
# Method: (§3) After washing twice with the washing buffer, NFκB diluted at 100 ng/mL with the binding buffer was added, and shaken at room temperature for one hour. After washing three times with the washing buffer, anti-NFκB antibody (RCK) diluted 100 times with antibody diluting buffer was added, and shaken at room temperature for one hour. After washing twice with the washing buffer, FITC-labeled anti-rabbit IgG antibody diluted 50 times with the antibody diluting buffer was added, and shaken at room temperature for one hour. After washing twice with the washing buffer, at a fluorescence wavelength of 535 nm based on Fluorescence of FITC excited with laser at a wavelength of 473 nm, fluorescent intensity was detected by CRBIO II microarray scanner.
# The oligonucleotides comprising 9 element sequences, PRD II, AP1, p53, VDRE, RARE, CRE, TRE, GRE and ERE which were not labeled with FITC were similarly immobilized on the DLC chip. NFκB (100 ng/mL) was added to the DLC chip on which these 9 transcription factors had been arrayed, and detected by fluorescence immunoassay. As a result, the fluorescence was detected only from the oligonucleotide comprising PRD II which was the NFκB recognition sequence. […] Therefore, it is possible to construct the system in which multiple transcription factors are simultaneously detected in a sample in a small amount by combining antibodies which specifically recognize the transcription factors which is bound to the other element sequences.
# Vitamin D receptor (VDR) = target: T1, Vitamin D receptor (VDR); assay: 500 fmol/chip; captured VDR detected by on-chip trypsin digestion and MALDI-TOF MS
# Method: Next, the on-chip digestion of 500 fmol/chip of vitamin D receptor was performed using trypsin (1 μg/mL) on the chip on which the element sequence VDRE which was the recognition sequence of the vitamin D receptor had been immobilized. Subsequently, the sample was added to the MALDI plate, and consequently, the same peptide map as that obtained by trypsin digestion of the sample in the solution was obtained as is the case with NFκB (FIGS. 16 and 17).
# NF-kB p50 [4] = target: T2, NF-kB p50; assay: array fluorescence immunoassay, 100 ng/mL; in ELISA about 30-50% background color before blocking optimisation; conditions: tags: Promega; chain copies: 2
# Method: as §3
# The oligonucleotides comprising 9 element sequences, PRD II, AP1, p53, VDRE, RARE, CRE, TRE, GRE and ERE which were not labeled with FITC were similarly immobilized on the DLC chip. NFκB (100 ng/mL) was added to the DLC chip on which these 9 transcription factors had been arrayed, and detected by fluorescence immunoassay. As a result, the fluorescence was detected only from the oligonucleotide comprising PRD II which was the NFκB recognition sequence. […]
# T2 sequence (P19838 1-433, one chain of several): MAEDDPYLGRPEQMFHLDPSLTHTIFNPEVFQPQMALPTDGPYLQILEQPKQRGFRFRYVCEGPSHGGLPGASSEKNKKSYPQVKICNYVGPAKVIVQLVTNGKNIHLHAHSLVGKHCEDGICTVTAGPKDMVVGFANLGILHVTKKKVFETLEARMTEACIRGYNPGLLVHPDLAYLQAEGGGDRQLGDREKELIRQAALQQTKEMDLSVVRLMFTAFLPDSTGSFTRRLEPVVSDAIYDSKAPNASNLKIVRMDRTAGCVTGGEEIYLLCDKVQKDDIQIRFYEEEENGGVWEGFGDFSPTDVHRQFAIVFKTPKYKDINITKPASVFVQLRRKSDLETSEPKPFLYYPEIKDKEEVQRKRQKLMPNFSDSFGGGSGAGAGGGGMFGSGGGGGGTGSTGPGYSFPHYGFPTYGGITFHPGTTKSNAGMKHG
Binder,binding result (NF-kB p50 [3]),further results
B1,,binding result (NF-kB p50 [1]): binds
B2,,binding result (NF-kB p50 [2]): binds
B3,no binding,binding result (Vitamin D receptor (VDR)): binds
B4,,binding result (NF-kB p50 [4]): no binding
B5,no binding,
B6,no binding,
B7,no binding,
